Like-named read-outs stand apart in the source and are kept apart here.
Experiments:
[1] = target: T1, PD-L1 expressed on the cell surface (CHO/PD-L1 cells) (UniProt Q9NZQ7 19-290); assay: cell-based or functional assay
[2] = target: T1, PD-L1 expressed on the cell surface …; assay: cell-based or functional assay; remark: listed apart in the source
[3] = target: T2, CD137 expressed on the cell surface (CHO/CD137 cells) (UniProt Q07011 24-255, limits assumed); assay: flow cytometry (FACS) on CHO cells expressing CD137, MFI
T2 construct: whole, on cells; also called cell surface CD137; Jurkat-NF-κB-Luc reporter cells overexpressing CD137
T2 sequence (Q07011 24-255 limits assumed): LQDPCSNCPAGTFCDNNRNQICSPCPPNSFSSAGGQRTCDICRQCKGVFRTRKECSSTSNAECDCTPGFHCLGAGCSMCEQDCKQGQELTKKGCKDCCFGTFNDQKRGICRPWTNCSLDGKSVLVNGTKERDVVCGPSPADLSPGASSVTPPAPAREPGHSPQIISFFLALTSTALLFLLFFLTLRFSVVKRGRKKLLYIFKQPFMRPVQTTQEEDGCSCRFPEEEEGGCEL
Experimental: FACS analysis to evaluate the test articles for binding to cell surface CD137 was performed essentially as follows: 100 μL of CHO cells expressing CD137 (CHO/CD137) (1.0×10⁵ to 1×10⁶ cells/well) and 100 μL of serially diluted test article or control was added to each well of microtiter assay plate(s), mixed and incubated at RT for about 30 min. The cells were washed with FACS Buffer and secondary antibody (goat anti-human-APC, PE, or FITC) was then added to each well (1:1000), after which, the components were mixed and the wells were incubated at RT for about 30 min. Cells were washed and resuspended in 250 μL FACS Buffer and analyzed by flow cytometry (BD LSR Fortessa or FACSCanto II) for cell events collection. Data analysis were performed via FloJo v10.

[4] = target: T3, soluble PD-L1 fused to a His tag (shPD-L1) (UniProt Q9NZQ7 19-238, limits assumed); assay: ELISA on plate-coated shPD-L1-his, anti-human kappa-HRP detection, RLU
T3 construct: the species of shPD-L1 is not written out; also called shPD-L1-his; not shown: His tag
T3 sequence (Q9NZQ7 19-238 limits assumed): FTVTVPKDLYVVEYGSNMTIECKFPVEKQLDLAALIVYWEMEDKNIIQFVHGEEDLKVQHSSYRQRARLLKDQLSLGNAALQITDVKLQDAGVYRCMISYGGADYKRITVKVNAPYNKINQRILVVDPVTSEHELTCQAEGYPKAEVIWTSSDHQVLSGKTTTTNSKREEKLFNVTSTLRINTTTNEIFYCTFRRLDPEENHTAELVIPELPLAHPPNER
Experimental: ELISA assays to evaluate the test articles for CD137 binding were performed essentially as follows: flat bottom maxisorb 96-well plates were coated with soluble human or cynomolgus monkey CD137 (the extracellular domain of human or cynomolgus monkey CD137 fused to a His tag (shCD137 His or scyCD137 His) or to a human Fc Region (shCD137 hFc or scyCD137 hFc)), each at 0.5 or 1 μg/mL. The plates were washed, blocked with PBS buffer containing 0.5% bovine serum albumin and 0.1% Tween20, and incubated with a test article (e.g., cell supernatants or purified mAb). For the hybridoma supernatants anti-CD137 antibody was utilized at 1.0 μg/mL and six three-fold serial dilutions. The amount of test article binding to the immobilized CD137 (human or cynomolgus monkey) was assessed using a goat anti-mouse IgG-HRP secondary antibody. All samples were analyzed on a plate reader (Victor 2 Wallac, Perkin Elmer) and EC50 values were calculated from dose-response curves by nonlinear regression analysis.
The binding of Fab fragments comprising different combinations of these substitutions to shPD-L1-his was evaluated by ELISA essentially as described above except a goat anti-human kappa-HRP secondary antibody was used.

T1 sequence (Q9NZQ7 19-290): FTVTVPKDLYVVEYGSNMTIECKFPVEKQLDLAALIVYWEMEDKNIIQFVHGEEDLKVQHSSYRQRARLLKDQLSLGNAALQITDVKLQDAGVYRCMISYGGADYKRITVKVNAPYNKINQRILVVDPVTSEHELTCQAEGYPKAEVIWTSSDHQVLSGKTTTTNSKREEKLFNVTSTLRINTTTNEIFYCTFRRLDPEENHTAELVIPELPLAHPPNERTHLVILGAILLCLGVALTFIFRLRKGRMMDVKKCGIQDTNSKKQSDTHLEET

EC50 (read off the curve) [1] [µg/mL]	binding result [4]	other results	Binder
~0.1		EC50 (read off the curve) [2]: ~0.2 µg/mL; EC50 (read off the curve) [3]: ~0.05 µg/mL	DART-A7 (bispecific antibody, Tetravalent; CD137 MAB-6(1.1) and hPD-L1 MAB-2(4.2)) chain 1: DIQMTQSPSSLSASVGDRVTITCKASQDVNEAVAWYQQKPGKAPKLLIYWASTRHTGVPSRFSGSGSGTDFTLTISSLQPEDFATYYCQQHYNTPLTFGQGTKVEIKGGGSGGGGQVQLQESGPGLVKPSETLSLTCTVSGGSISSYYWSWIRQPPGKGLEWIGRIYTSGSTNYNPSLKSRVTMSVDTSKNQFSLKLSSVTAADTAVYYCARDGWYDEDYNYYGMDVWGQGTTVTVSSGGCGGGEVAACEKEVAALEKEVAALEKEVAALEKLEPKSADKTHTCPPCPAPEAAGGPSVFLFPPKPKDTLYITREPEVTCVVVDVSHEDPEVKFNWYVDGVEVHNAKTKPREEQYNSTYRVVSVLTVLHQDWLNGKEYKCKVSNKALPAPIEKTISKAKGQPREPQVYTLPPSREEMTKNQVSLTCLVKGFYPSDIAVEWESNGQPENNYKTTPPVLDSDGSFFLYSKLTVDKSRWQQGNVFSCSVMHEALHNHYTQKSLSLSPGK chain 2: EIVMTQSPATLSLTPGERATLSCRASQSVSSNYLSWFQQIPGQAPRLLIYGASTRATGIPARFSGSGSGTDFTLTISSLQPEDFAVYYCQQDYDLPWTFGQGTKVEIKGGGSGGGGEVQLVESGGGLVQPGGSLRLSCAASGFTFSSYTMSWVRQAPGKGLEWVAYISIGGGTTYYPDTVKGRFTISRDNAKNSLYLQMNSLRAEDTAVYYCARAGLPYYFDYWGQGTLVTVSSGGCGGGKVAACKEKVAALKEKVAALKEKVAALKE
~0.1			DART-A9 (bispecific antibody) chain 1: DIQMTQSPSSLSASVGDRVTITCKASQDVNEAVAWYQQKPGKAPKLLIYWASTRHTGVPSRFSGSGSGTDFTLTISSLQPEDFATYYCQQHYNTPLTFGQGTKVEIKGGGSGGGGQVQLQESGPGLVKPSETLSLTCTVSGGSISSYYWSWIRQPPGKGLEWIGRIYTSGSTNYNPSLKSRVTMSVDTSKNQFSLKLSSVTAADTAVYYCARDGWYDEDYNYYGMDVWGQGTTVTVSSGGCGGGEVAACEKEVAALEKEVAALEKEVAALEKLEPKSADKTHTCPPCPAPEAAGGPSVFLFPPKPKDTLYITREPEVTCVVVDVSHEDPEVKFNWYVDGVEVHNAKTKPREEQYNSTYRVVSVLTVLHQDWLNGKEYKCKVSNKALPAPIEKTISKAKGQPREPQVYTLPPSREEMTKNQVSLTCLVKGFYPSDIAVEWESNGQPENNYKTTPPVLDSDGSFFLYSKLTVDKSRWQQGNVFSCSVMHEALHNHYTQKSLSLSPGK chain 2: EIVMTQSPATLSLTPGERATLSCRASQSVSSNYLSWFQQIPGQAPRLLIYGASTRATGIPARFSGSGSGTDFTLTISSLQPEDFAVYYCQQDYDLPWTFGQGTKVEIKGGGSGGGGEVQLVESGGGLVQPGGSLRLSCAASGFTFSSYTMSWVRQAPGKGLEWVAYISIGGGTTYYPDTVKGRFTISRDNAKNSLYLQMNSLRAEDTAVYYCARAGLPYYGDYWGQGTLVTVSSGGCGGGKVAACKEKVAALKEKVAALKEKVAALKE
~0.1			DART-A8 (bispecific antibody) chain 1: DIQMTQSPSSLSASVGDRVTITCKASQDVNEAVAWYQQKPGKAPKLLIYWASTRHTGVPSRFSGSGSGTDFTLTISSLQPEDFATYYCQQHYNTPLTFGQGTKVEIKGGGSGGGGQVQLQESGPGLVKPSETLSLTCTVSGGSISSYYWSWIRQPPGKGLEWIGRIYTSGSTNYNPSLKSRVTMSVDTSKNQFSLKLSSVTAADTAVYYCARDGWYDEDYNYYGMDVWGQGTTVTVSSGGCGGGEVAACEKEVAALEKEVAALEKEVAALEKLEPKSADKTHTCPPCPAPEAAGGPSVFLFPPKPKDTLYITREPEVTCVVVDVSHEDPEVKFNWYVDGVEVHNAKTKPREEQYNSTYRVVSVLTVLHQDWLNGKEYKCKVSNKALPAPIEKTISKAKGQPREPQVYTLPPSREEMTKNQVSLTCLVKGFYPSDIAVEWESNGQPENNYKTTPPVLDSDGSFFLYSKLTVDKSRWQQGNVFSCSVMHEALHNHYTQKSLSLSPGK chain 2: EIVMTQSPATLSLTPGERATLSCRASQSVSSNYLSWFQQIPGQAPRLLIYGASTRATGIPARFSGSGSGTDFTLTISSLQPEDFAVYYCQQDYDLPWTFGQGTKVEIKGGGSGGGGEVQLVESGGGLVQPGGSLRLSCAASGFTFSSYTMSWVRQAPGKGLEWVAYISIKGGTTYYPDTVKGRFTISRDNAKNSLYLQMNSLRAEDTAVYYCARAGLPYYFDYWGQGTLVTVSSGGCGGGKVAACKEKVAALKEKVAALKEKVAALKE
		EC50 (read off the curve) [2]: ~0.2 µg/mL; EC50 (read off the curve) [3]: ~0.05 µg/mL	DART-A10 (bispecific antibody, Tetravalent; CD137 MAB-6(1.3) and hPD-L1 MAB-2(4.2)) chain 1: DIQMTQSPSSLSASVGDRVTITCKASQDVNEAVAWYQQKPGKAPKLLIYWASTRHTGVPSRFSGSGSGTDFTLTISSLQPEDFATYYCQQHYNTPLTFGQGTKVEIKGGGSGGGGQVQLQESGPGLVKPSETLSLTCTVSGGSISSYYWSWIRQPPGKGLEWIGRIYTSGSTNYNPSLKSRVTMSVDTSKNQFSLKLSSVTAADTAVYYCARDGWYDEDYNYYGMDVWGQGTTVTVSSGGCGGGEVAACEKEVAALEKEVAALEKEVAALEKLEPKSADKTHTCPPCPAPEAAGGPSVFLFPPKPKDTLYITREPEVTCVVVDVSHEDPEVKFNWYVDGVEVHNAKTKPREEQYNSTYRVVSVLTVLHQDWLNGKEYKCKVSNKALPAPIEKTISKAKGQPREPQVYTLPPSREEMTKNQVSLTCLVKGFYPSDIAVEWESNGQPENNYKTTPPVLDSDGSFFLYSKLTVDKSRWQQGNVFSCSVMHEALHNHYTQKSLSLSPGK chain 2: EIVMTQSPATLSLSPGERATLSCRASQSVSSNYLSWFQQKPGQAPRLLIYGASTRATGIPARFSGSGSGTDFTLTISSLQPEDFAVYYCQQDYDLPWTFGQGTKVEIKGGGSGGGGEVQLVESGGGLVQPGGSLRLSCAASGFTFSSYTMSWVRQAPGKGLEWVAYISIGGGTTYYPDTVKGRFTISRDNAKNSLYLQMNSLRAEDTAVYYCARAGLPYYFDYWGQGTLVTVSSGGCGGGKVAACKEKVAALKEKVAALKEKVAALKE
	binds		hPD-L1 MAB-2A (Fab) (Fab, V domains shown, Fab fragment) VH: EVQLVESGGGLVQPGGSLRLSCAASGFTFSGYTMSWVRQAPGKGLEWVAYISIKGGTTYYPDTVKGRFTISRDNAKNTLYLQMNSLKTEDTAVYYCARAGLPYYFDYWGQGTLVTVSS VL: DIQMTQSPSSLSASVGDRVTITCKASQHVNTAVAWYQQKPGKAPKLLIYWASTRHTGVPSRFSGSGSGTDFTLTISSLQPEDFATYYCQQHYNTPLTFGQGTKVEIK
	binds		hPD-L1 MAB-2E (Fab) (Fab, V domains shown, Fab fragment) VH: EVQLVESGGGLVQPGGSLRLSCAASGFTFSSYTMSWVRQAPGKGLEWVAYISIKGGTTYYPDTVKGRFTISRDNAKNTLYLQMNSLKTEDTAVYYCARAGLPYYFDYWGQGTLVTVSS VL: DIQMTQSPSSLSASVGDRVTITCKASQLVNTAVAWYQQKPGKAPKLLIYWASTRHTGVPSRFSGSGSGTDFTLTISSLQPEDFATYYCQQHYNTPLTFGQGTKVEIK
	binds		hPD-L1 MAB-2B (Fab) (Fab, V domains shown, Fab fragment) VH: EVQLVESGGGLVQPGGSLRLSCAASGFTFSGYTMSWVRQAPGKGLEWVAYISIKGGTTYYPDTVKGRFTISRDNAKNTLYLQMNSLKTEDTAVYYCARGGLPYYFDYWGQGTLVTVSS VL: DIQMTQSPSSLSASVGDRVTITCKASQVVNTAVAWYQQKPGKAPKLLIYWASTRHTGVPSRFSGSGSGTDFTLTISSLQPEDFATYYCQQHYNTPLTFGQGTKVEIK
	binds		hPD-L1 MAB-2D (Fab) (Fab, V domains shown, Fab fragment) VH: EVQLVESGGGLVQPGGSLRLSCAASGFTFSSYTMSWVRQAPGKGLEWVAYISIGGGTTYYPDTVKGRFTISRDNAKNTLYLQMNSLKTEDTAVYYCARQGLPYYGDYWGQGTLVTVSS VL: DIQMTQSPSSLSASVGDRVTITCKASQLVNTAVAWYQQKPGKAPKLLIYWAETRHTGVPSRFSGSGSGTDFTLTISSLQPEDFATYYCQQHYNTPLTFGQGTKVEIK
	binds		hPD-L1 MAB-2C (Fab) (Fab, V domains shown, Fab fragment) VH: EVQLVESGGGLVQPGGSLRLSCAASGFTFSGYTMSWVRQAPGKGLEWVAYISIKGGTTYYPDTVKGRFTISRDNAKNTLYLQMNSLKTEDTAVYYCARQGLPYYGDYWGQGTLVTVSS VL: DIQMTQSPSSLSASVGDRVTITCKASQLVNTAVAWYQQKPGKAPKLLIYWASTRHTGVPSRFSGSGSGTDFTLTISSLQPEDFATYYCQQHYNTPLTFGQGTKVEIK

Reference: US20230094162A1 (MacroGenics, published 2023)
